According to PMC5461112, “Structure analyses reveal a regulated oligomerization mechanism of the PlexinD1/GIPC/myosin VI complex” (eLife, 2017):
Positions count from the first letter of the chain named. Names may count otherwise. “And” between values parts separate entries of the source, which are not always exact repeats. Identical values can stand only once.

T1: mouse PlexinD1 cytoplasmic region with the JM-segment (residues 1297-1925) (mouse, UniProt Q3UH93 1297-1925)
T1 construct: mouse PlexinD1, cytoplasmic region with the juxtamembrane segment, residues 1297-1925; also called PlexinD1_(cyto)(with JM); PlxD1; not shown: His6, N-terminal, cleaved
T1 sequence (looked up): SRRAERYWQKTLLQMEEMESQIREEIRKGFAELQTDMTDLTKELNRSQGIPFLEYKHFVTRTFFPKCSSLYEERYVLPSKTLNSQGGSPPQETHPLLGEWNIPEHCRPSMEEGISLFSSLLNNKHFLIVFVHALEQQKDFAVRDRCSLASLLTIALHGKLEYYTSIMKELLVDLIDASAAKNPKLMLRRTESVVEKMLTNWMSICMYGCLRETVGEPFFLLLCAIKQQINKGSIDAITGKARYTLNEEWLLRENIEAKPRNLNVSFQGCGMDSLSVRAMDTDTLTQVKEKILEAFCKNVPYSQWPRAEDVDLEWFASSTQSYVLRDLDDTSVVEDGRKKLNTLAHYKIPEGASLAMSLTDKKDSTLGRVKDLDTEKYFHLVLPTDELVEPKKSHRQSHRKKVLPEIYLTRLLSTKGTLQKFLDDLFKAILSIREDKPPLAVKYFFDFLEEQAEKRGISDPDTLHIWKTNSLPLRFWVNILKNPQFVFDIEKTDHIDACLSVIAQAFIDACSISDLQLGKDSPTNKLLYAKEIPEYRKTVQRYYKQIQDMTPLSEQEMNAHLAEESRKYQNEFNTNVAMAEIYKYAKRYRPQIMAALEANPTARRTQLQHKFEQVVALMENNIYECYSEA

T2: helical cargo-binding domain (HCBD) of mouse myosin VI (residues 1052-1096), GST removed
T2 chain: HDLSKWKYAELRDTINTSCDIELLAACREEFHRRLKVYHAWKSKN

B1: mouse GIPC2 GH1-PDZ-GH2 (residues 40-314) (domain or fragment, UniProt Q9Z2H7 40-314, looked up)
chain: RKLVFHAQLAHGSATGRVEDFSSISELYAKIAGVFEIAPSEILFCTLNTPKIDMGKLLGGQLGLEDFIFAHVKGTKKEVNVYKSEDSLGLTITDNGVGYAFIKRIKDGSTIDSVKTICVGDHIECINGENIVGWRHFEVAKKLKELKKEELFTLQLIEPKKAFEIGPRSKAGKTSTEKIGTSRGTLRLRSKGPATVEELPSEAKAKAIGKVDDLLELYMGIRDIDLATTMFEAGKDKSNPDEFAVALDETLGDFAFPDEFLFDVWGAISDMKQGR
notes: mouse GIPC2, GH1-PDZ-GH2 domains, residues 40-314; not shown: His6, N-terminal, cleaved
B2: mouse GIPC1 GH1-PDZ-GH2 version 1 (residues 52-333) (domain or fragment, UniProt Q9Z0G0 52-333, looked up)
chain: AALRPRLVFHTQLAHGSPTGRIEGFTNVKELYGKIAEAFRLPAAEVMFCTLNTHKVDMDKLLGGQIGLEDFIFAHVKGQRKEVEVFKSEEALGLTITDNGAGYAFIKRIKEGSVIDHIQLISVGDMIEAINGQSLLGCRHYEVARLLKELPRGRTFTLKLTEPRKAFDMISQRSAGGHPGSGPQLGTGRGTLRLRSRGPATVEDLPSAFEEKAIEKVDDLLESYMGIRDTELAATMVELGKDKRNPDELAEALDERLGDFAFPDEFVFDVWGAIGDAKVGRY
notes: mouse GIPC1, GH1-PDZ-GH2 domains, version 1, residues 52-333; the PDZ-GH2 linker and GH2 domain are invisible in the map; not shown: His6, N-terminal, cleaved
B3: mouse GIPC1 linker-GH2 (residues 217-333), Q9Z0G0 Y275A; M276E; I278Q; G323Q (protein)
chain: AFDMISQRSAGGHPGSGPQLGTGRGTLRLRSRGPATVEDLPSAFEEKAIEKVDDLLESAEGQRDTELAATMVELGKDKRNPDELAEALDERLGDFAFPDEFVFDVWQAIGDAKVGRY
B4: mouse GIPC1 linker-GH2 (residues 217-333), Q9Z0G0 Y275A; M276E; G323Q (protein)
chain: B3 chain with Q62I
B5: mouse GIPC1 linker-GH2 (residues 217-333), Q9Z0G0 Y275A; M276E; I278Q (protein)
chain: B3 chain with Q107G
B6: mouse GIPC1 linker-GH2 (residues 217-333), Q9Z0G0 Y275A; M276E (protein)
chain: B3 chain with Q62I, Q107G
B7: mouse GIPC1 GH1-PDZ-GH2 version 2 (residues 52-327) (domain or fragment, UniProt Q9Z0G0 52-327, looked up)
chain: AALRPRLVFHTQLAHGSPTGRIEGFTNVKELYGKIAEAFRLPAAEVMFCTLNTHKVDMDKLLGGQIGLEDFIFAHVKGQRKEVEVFKSEEALGLTITDNGAGYAFIKRIKEGSVIDHIQLISVGDMIEAINGQSLLGCRHYEVARLLKELPRGRTFTLKLTEPRKAFDMISQRSAGGHPGSGPQLGTGRGTLRLRSRGPATVEDLPSAFEEKAIEKVDDLLESYMGIRDTELAATMVELGKDKRNPDELAEALDERLGDFAFPDEFVFDVWGAIGD
notes: mouse GIPC1, GH1-PDZ-GH2 domains, version 2, residues 52-327; the dimer peak of gel filtration was collected; also called apo-GIPC1; not shown: His6, N-terminal, cleaved
B8: mouse GIPC1 GH2 domain (residues 258-333), Q9Z0G0 M276E (protein)
chain: SAFEEKAIEKVDDLLESYEGIRDTELAATMVELGKDKRNPDELAEALDERLGDFAFPDEFVFDVWGAIGDAKVGRY
B9: mouse GIPC1 GH2 domain (residues 258-333), Q9Z0G0 Y275A; M276E; I278Q (protein)
chain: B8 chain with Y18A, I21Q
B10: mouse GIPC1 GH2 domain (residues 258-333), Q9Z0G0 M276E; F319S (protein)
chain: B8 chain with F62S
B11: mouse GIPC1 GH2 domain (residues 258-333), Q9Z0G0 M276E; G323Q (protein)
chain: B8 chain with G66Q
B12: mouse GIPC1 GH2 domain (residues 258-333) (domain or fragment)
chain: B8 chain with E19M
B13: mouse GIPC1 GH2 domain (residues 258-333), Q9Z0G0 Y275A (protein)
chain: B8 chain with Y18A, E19M
B14: mouse GIPC1 GH2 domain (residues 258-333), Q9Z0G0 Y275A; M276E; I278Q; G323Q (protein)
chain: B8 chain with Y18A, I21Q, G66Q
B15: mouse GIPC1 GH2 domain (residues 258-333), Q9Z0G0 Y275A; M276E; G323Q (protein)
chain: B8 chain with Y18A, G66Q
B16: mouse GIPC1 GH2 domain (residues 258-333), Q9Z0G0 G323Q (protein)
chain: B8 chain with E19M, G66Q
B17: mouse GIPC1 GH2 domain (residues 258-333), Q9Z0G0 I278Q (protein)
chain: B8 chain with E19M, I21Q
B18: mouse GIPC1 GH2 domain (residues 258-333), Q9Z0G0 Y275A; G323Q (protein)
chain: B8 chain with Y18A, E19M, G66Q
B19: mouse GIPC1 GH2 domain (residues 258-333), Q9Z0G0 Y275A; M276E (protein)
chain: B8 chain with Y18A
B20: mouse GIPC1 GH2 domain (residues 258-333), Q9Z0G0 F319S (protein)
chain: B8 chain with E19M, F62S
B21: mouse GIPC1 GH2 domain (residues 258-333), Q9Z0G0 I278Q; G323Q (protein)
chain: B8 chain with E19M, I21Q, G66Q

Legend:
[1] = biological target: mouse GIPC3 GH1-PDZ-GH2 (residues 20-307) (mouse); test: SEC; gel filtration chromatography of the GH1-PDZ-GH2 proteins during purification
[2] = biological target: mouse GIPC1 GH1-PDZ-GH2 (version not told; pull-down and gel filtration) (mouse) (UniProt Q9Z0G0); test: as above
[3] = biological target: the molecule itself; test: as above
[4] = biological target: T1, mouse PlexinD1 cytoplasmic region with …; test: pull-down; three proteins mixed: GST-HCBD, a GIPC and PlexinD1cyto (with JM), each 1 μM; glutathione beads; 10 mM Tris pH 8.0, 150 mM NaCl, 1 mM DTT; room temperature; Coomassie-stained SDS-PAGE; conditions: both partners purified
[5] = biological target: the molecule itself; test: crystal structure; PlexinD1cyto and GIPC1 (residues 52-333) mixed equimolar, 5 mg/ml; 0.1 M Bis-Tris pH 5.5, 2 M (NH4)2SO4; 20°C
[6] = biological target: T2, helical cargo-binding domain (HCBD) of …; test: sedimentation velocity analytical ultracentrifugation (AUC); conditions: chain shown with the change, 150 μM, read off a plot
[7] = biological target: the molecule itself; test: crystal structure; apo-GIPC1 (residues 52-327), 5 mg/ml; 0.2 M Li2SO4, 0.1 M HEPES pH 7.5, 25% (w/v) PEG3350; 20°C
[8] = biological target: helical cargo-binding domain (HCBD) of mouse myosin VI (residues 1052-1096), GST removed (mouse); test: AUC; sedimentation velocity of GH2 and HCBD mixed 1:1 at various concentrations (mutants at 150 μM); multi-signal analysis; 10 mM Tris pH 8.0, 150 mM NaCl, 1 mM TCEP; 4°C, 50,000 rpm
[9] = 500 mM salt in the buffer, parent: est. 4.3

| Molecule | other: s20,ww-value of the complex ([6]; parent: est. 3.8) [S] | other results |
| --- | --- | --- |
| mouse GIPC3 GH1-PDZ-GH2 (residues 20-307) (domain or fragment) |  | stoichiometry N [1]: 2 |
| mouse GIPC1 GH1-PDZ-GH2 (version not told; pull-down and gel filtration) (from UniProt Q9Z0G0 52-333) (domain or fragment) |  | stoichiometry N [2]: 2 |
| B1 |  | stoichiometry N [3]: 2; binding result [4]: binds |
| B2 |  | binding result [5]: binds |
| B3 |  | other: s20,ww-value of the complex [6, 9]: 1.4 S |
| B4 |  | other: s20,ww-value of the complex [6, 9]: 1.4 S |
| B5 |  | other: s20,ww-value of the complex [6, 9]: 1.4 S |
| B6 |  | other: s20,ww-value of the complex [6, 9]: 1.4 S |
| B7 |  | binding result [7]: binds |
| B8 | 3.3 |  |
| B9 | 1.3 |  |
| B10 | 1.6 |  |
| B11 | 1.5 |  |
| B12 |  | stoichiometry N [8]: 1 and 1.1 |
| B13 | 3 |  |
| B14 | 1.3 |  |
| B15 | 1.3 |  |
| B16 | 1.8 |  |
| B17 | 2.1 |  |
| B18 | 1.6 |  |
| B19 | 1.3 |  |
| B20 | 2.4 |  |
| B21 | 1.8 |  |
